Our source for the IC50 values is patent publication US20260146091A1.

One experiment concerns the target mPDL-1 (mouse) (UniProt Q9EP73). The experiment is described as follows: mPD-1/mPD-L1 binding inhibition.
For another experiment, the target named is mPD-1 (mouse) (UniProt Q02242). The experiment is described as follows: mPD-1/mPD-L1 binding inhibition.
Chain of mPD-1 (mouse) (Q02242 25-169): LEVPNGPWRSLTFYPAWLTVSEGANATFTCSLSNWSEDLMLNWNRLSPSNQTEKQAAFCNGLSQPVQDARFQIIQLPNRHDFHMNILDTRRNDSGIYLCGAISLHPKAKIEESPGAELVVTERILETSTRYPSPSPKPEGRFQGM

Chain of mPDL-1 (mouse) (Q9EP73 19-239): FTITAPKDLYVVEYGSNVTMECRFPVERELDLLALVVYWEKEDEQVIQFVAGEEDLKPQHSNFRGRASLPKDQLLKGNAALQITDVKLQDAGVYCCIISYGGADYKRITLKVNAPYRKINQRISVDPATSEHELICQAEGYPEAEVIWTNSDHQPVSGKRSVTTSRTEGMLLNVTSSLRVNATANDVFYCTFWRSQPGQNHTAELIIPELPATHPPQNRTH

On to Clone 10F.9G2, for which, in the experiment with mPDL-1 (mouse), the IC50 stood at 1.09 nM.

In the experiment with mPD-1 (mouse), Clone RMPI-14 yielded an IC50 of 31.1 nM.
